Data reported in patent US20030223996A1 (published 2003).
Blank lines part the entries; values can stand above or below the binder they belong to.

Experiments:
[1] = molecular target: T1, Tumour Necrosis Factor-beta (human, UniProt P01374 35-205); test: phage ELISA
T1 construct: also called TNFβ; TNF-β
T1 sequence (looked up): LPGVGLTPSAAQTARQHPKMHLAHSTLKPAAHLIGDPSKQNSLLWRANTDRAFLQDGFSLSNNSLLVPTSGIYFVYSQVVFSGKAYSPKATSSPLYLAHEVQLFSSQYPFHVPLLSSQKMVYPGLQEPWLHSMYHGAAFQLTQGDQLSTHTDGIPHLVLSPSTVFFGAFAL
Description: (§1) To determine the specificity of the 48 scFvs, a phage ELISA was performed against human and mouse BLyS, and a panel of related and unrelated human antigens: Fas ligand, TRAIL, TNFα, TNFβ, and PBS. The: Fas ligand, TRAIL, TNFα, and TNFβ antigens were obtained from R&D Systems, Minneapolis, Minn. Individual E. coli colonies containing phagemid were inoculated into 5 ml 2YTAG and incubated at 37° C. for 4 hours, shaking. M13KO7 helper phage (Pharmacia) was added to each tube to a MOI of 10 and incubated […] 1 hour, the first 30 minutes static and the final 30 minutes with gentle shaking. Cells were pelleted by centrifugation at 3,500 rpm for 10 minutes and the supernatant discarded. Cell pellets were resuspended in 5 ml 2TYAK and incubated at 30° C. overnight with shaking. The next day, the cells were pelleted by centrifugation at 3,500 rpm for 10 minutes. The phage-containing supernatant (5 ml) was carefully transferred to a fresh tube, 1 ml of 6MPBS was added, and the tube was incubated at room temperature for 1 hour to pre-block the phage prior to ELISA.
(§2) All antigens were coated at 1 μg/ml. ELISAs were performed essentially as described in Example 2. The only exception to this being the detection of phage antibody binding to mouse BLyS where the step involving incubation with the HRP-labelled anti-mouse polymer was omitted. Binding to mouse BLyS was detected with TMB as in Example 2.

[2] = molecular target: T2, mouse membrane-bound BLyS on P388 plasma membranes (mouse, UniProt Q9WU72 1-309); test: competition phage ELISA on P388 membranes
T2 construct: whole, on cells; Plasma membrane preparations, not intact cells
T2 sequence (Q9WU72 whole entry): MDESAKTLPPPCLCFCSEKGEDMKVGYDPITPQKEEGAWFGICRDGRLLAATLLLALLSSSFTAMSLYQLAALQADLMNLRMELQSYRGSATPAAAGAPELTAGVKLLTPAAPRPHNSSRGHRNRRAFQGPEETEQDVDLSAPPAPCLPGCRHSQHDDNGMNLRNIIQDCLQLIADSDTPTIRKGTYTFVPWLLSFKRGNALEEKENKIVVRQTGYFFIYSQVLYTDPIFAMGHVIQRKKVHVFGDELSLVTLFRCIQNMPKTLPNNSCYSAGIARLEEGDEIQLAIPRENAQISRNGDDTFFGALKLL
Description: The ability of the 5 scFvs listed in Table 8 to also recognize murine membrane-bound BLyS was determined using a competition ELISA. This assay assesses the ability of test phage scFvs to bind to the membrane-bound form of BLyS on the murine cell line, P388, plasma membranes in the presence of different forms of competing human BLyS. Competing BLyS was either presented as the His-tagged form of BLyS, or soluble BLyS. ScFvs that recognize mouse membrane-bound BLyS would give an ELISA signal on the P388 plasma membranes that is competed out by pre-incubation with HIS-tagged BLyS but not by pre-incubation with soluble BLyS.
P388 plasma membranes (50 μl per well) were coated at 10 μg/ml in PBS onto Falcon 96-well plates overnight at 4° C. The method is otherwise essentially as described Example 16.

[3] = molecular target: T3, Tumour Necrosis Factor-alpha (human, UniProt P01375 77-233); test: phage ELISA
T3 construct: also called TNFα; TNF-α
T3 sequence (P01375 77-233 limits assumed): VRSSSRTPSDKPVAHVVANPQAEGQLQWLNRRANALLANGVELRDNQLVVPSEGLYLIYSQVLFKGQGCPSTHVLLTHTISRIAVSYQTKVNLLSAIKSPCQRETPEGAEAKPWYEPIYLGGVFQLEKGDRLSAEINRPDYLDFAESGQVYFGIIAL
Description: as §1, §2

B1: I016F04 (scFv)
scFv: QVQLQQSGSELKKPGASVKVSCKVSGYSLTKMSMHWVRQSPGEGLEWVGGIDPETRQPVYAQKFQGRVTITKDTSASAAYMELSSLGSEDTALYYCARATYDPLTGYSFDGFDIWGQGTLVTVSSGGGGSGGGGSGGGGSQSVLTQPASVSGSPGQSITISCTGTSSDVGGYNYVSWYQQHPGKAPKLMIYEGSKRPSGVSNRFSGSKSGNTASLTISGLQAEDEADYYCSSYTTRSTRVFGGGTKLTVLG
binding result [1]: no binding

binding result [2]: binds
B2: I079E02 (scFv)
scFv: QVQLVQSGAEVKKPGSSVKVSCKASGGTFSSYAISWVRQAPGQGLEWMGGIIPIFGTANYAQKFQGRVTITADKSTSTAYMELSSLRSDDTAVYYCARDSGSYYYDAFDIWGKGTMVTVSSGGGGSGGGGSGGGGSDIVMTQSPSTLSASVGDRVTITCRASQGISSWLAWYQQKPGKAPKLLIYAASSLQSGVPSRFSGSGSGTDFTLTISSLQPEDFATYYCQQANSFPLTFGGGTKVEIKR

B3: I050A07 (scFv)
scFv: QVQLVQSGAEVKKPGASMKVSCKASAGRASAYGFAMHPIHWVRQAPGQGLEWMGWINGGTGNTKYSEKFLGRVTMTSDTSATTAYMELSSLRSEDTAVYYCARQDNDPLTGYKLGFDYWGKGTLVTVSSGGGGSGGGGSGGGGSAQSVVTQPPSVSGAPGQRVTISCTGSSTNVGAGYGVHWYQQFPETAPKLLIYGGSNRPSGVPDRFSGSQSGTSASLAITGLQAEDEADYYCQSYDTTLSGYVFGTGTKVTVLG
binding result [3]: no binding

B4: I001C09 (scFv)
scFv: GVQLVQSGPEVKKPGASVKVSCTASGYTFTSYGVSWVRQAPGQGLEWIGWISAHNGQTKYAEKFQGRVTMTRNTSISTAYMELSSLRSEDTAVYYCARDGSYDILTGYYIDNYMDVWGKGTMVTVSSGGGGSGGGGSGGGGSSELTQDPAVSVALGQTVRITCQGDSLRSYYTNWFQQKPGQAPLLVVYAKNKRPSGIPDRFSGSSSGNTASLTITGAQAEDEADYYCHSRDSSGNHVLFGGGTKLTVLG
binding result [3]: no binding

binding result [2]: binds
B5: I082H08 (scFv)
scFv: EVQLVESGGGLVQPGGSLRLSCAASGFTFSDYGMHWVRQRPGKGLEWIAFIGSDGSNKYYGDTVKGRFTISRDNAKNSLYLQMNSLRAEGTAVYYCARDWDMDVWGQGTMVTVSSGGGGSGGGGSGGGGSSHVILTQPRSVSGSPGQSVTISCTGTSSDVGGYHYVSWYQQHPGKAPRLMIYEVTKRPSGVSNRFSGSKSGNTASLTISGVQAEDEADYYCSSYTSASTVIFGGGTKLTVLG

binding result [2]: binds
B6: I099D03 (scFv)
scFv: QVQLVQSGAEVKKPGASVRVSCKSSGYTFTNYGISWVRQAPGQGLEWMGWISNNNGKTYYAQKVQGRVTMTTDTSTSTDYMELRGLRSDDTAIYYCARDNGGGTIGFDYWGRGTLVTVSSGGGGSGGGGSGGGGSAQAVLTQPSSVSGAPGQRVTMSCTGSSSNIGAGYDVHWYQQLPGTAPKLLIYDNTNRPSGVPDRFSGSRSGTSASLAITGLQAEDEADYFCQSYDITLSAVFGTGTKVTVLG
